Consider 2 substances from publication PMC9412862.

Assay [1] deals with NS4b full-length (residues 1-249), C-terminal six-histidine tag (dengue virus serotype 1). The experiment in a line: BLI. For orientation: Biolayer interferometry detects binding as a change in optical thickness at a sensor tip.
Assay [2] has the same target. Nature of the assay: SEC. Background: Size exclusion chromatography separates by hydrodynamic size, large species first.

Consider “helicase domain of DENV NS3 (NS3Hel), residues 178-619, C-terminal 6-histidine tag (domain or fragment)”, for which the dissociation constant Kd – broadly, the concentration at which binding is half-saturated – in assay [1] stood at 508 nM. For “NS4b full-length (residues 1-249), C-terminal six-histidine tag (natural protein)”, the stoichiometry N (as a rule, a count of units in the complex or per binding partner) in assay [2] came to 2.
